What was measured:
[1] = molecular target: T1, murine B7-H3 (mouse, UniProt Q8VE98 29-316); assay: flow cytometry on Raji clones expressing mB7-H3
T1 construct: whole, on cells; also called mB7-H3; mouse B7-H3
T1 sequence (looked up): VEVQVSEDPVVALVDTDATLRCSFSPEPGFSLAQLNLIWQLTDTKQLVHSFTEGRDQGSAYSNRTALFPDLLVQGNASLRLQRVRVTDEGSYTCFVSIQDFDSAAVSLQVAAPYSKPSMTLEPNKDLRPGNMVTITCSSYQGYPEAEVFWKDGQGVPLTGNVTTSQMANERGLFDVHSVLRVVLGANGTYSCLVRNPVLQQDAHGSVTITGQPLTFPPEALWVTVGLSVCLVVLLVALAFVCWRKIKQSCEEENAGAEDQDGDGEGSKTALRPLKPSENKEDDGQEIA

[2] = molecular target: T2, human 4Ig-B7-H3 (human, UniProt Q5ZPR3 29-534); assay: flow cytometry on Raji clones expressing 4Ig-hB7-H3
T2 construct: whole, on cells; also called 4Ig-hB7-H3; Raji-4IgB7-H3
T2 sequence (looked up): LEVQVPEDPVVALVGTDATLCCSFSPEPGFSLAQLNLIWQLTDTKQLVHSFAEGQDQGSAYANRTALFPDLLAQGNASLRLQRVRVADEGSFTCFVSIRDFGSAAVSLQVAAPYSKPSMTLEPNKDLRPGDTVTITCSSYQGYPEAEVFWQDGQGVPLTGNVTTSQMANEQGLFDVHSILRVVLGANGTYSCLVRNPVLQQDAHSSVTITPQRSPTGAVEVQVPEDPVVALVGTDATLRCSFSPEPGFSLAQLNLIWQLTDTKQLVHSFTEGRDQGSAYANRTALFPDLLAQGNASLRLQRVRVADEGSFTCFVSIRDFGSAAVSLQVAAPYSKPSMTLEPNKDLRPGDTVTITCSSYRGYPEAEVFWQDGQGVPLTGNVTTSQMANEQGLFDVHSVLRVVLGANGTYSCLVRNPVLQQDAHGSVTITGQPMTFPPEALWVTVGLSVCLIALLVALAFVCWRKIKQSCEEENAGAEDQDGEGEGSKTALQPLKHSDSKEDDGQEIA

binding result [1]: binds | binding result [2]: binds
B1: anti-B7-H3 mAb 376.96 (antibody, V domains shown)
VH: EVQLVESGGGLVKPGGSLKLSCEASRFTFSSYAMSWVRQTPEKRLEWVAAISGGGRYTYYPDSMKGRFTISRDNAKNFLYLQMSSLRSEDTAMYYCARHYDGYLDYWGQGTTLTVSS
VL: DIVMTQSHKFMSTSIGARVSITCKASQDVRTAVAWYQQKPGQSPKLLIYSASYRYTGVPDRFTGSGSGTDFTFTISSVQAEDLAVYYCQQHYGTPPWTFGGGTKLEIK
notes: The residue ranges are my derivation
